The test system of data set [1] is PC3 cancer cells. In kind it is cell-based, human. As to conditions: 48 h. On the procedure:
(§1) Standard chromium (^51Cr)-release cytotoxicity assays were performed to assess the killing of tumor cells by redirected UniCAR T-cells as previously described. Briefly, chromium-labeled target cells were incubated for 48 h with UniCAR T-cells at an effector-to-target cell (E:T) ratio of 5:1 in the absence or presence of different TM concentrations. The radioactive signal in the supernatants was measured using a MicroBeta Microplate Counter (PerkinElmer, Rodgau, Germany).

For data set [2], the system named is LNCaP cancer cells. Type of data set: cell-based, human. The note with it: 48 h. How it is done: as §1
Data set [3] addresses T1, GRPR (Homo sapiens, UniProt P30550).
T1 construct: Both cell lines express GRPR; endogenous in cells; host or cells: PC-3 cells (dimeric TM also tested in LNCaP cells)
Briefly: Competitive binding assay against 125I-Tyr4-bombesin in PC3 cells. As to conditions: competition against 125I-Tyr4-bombesin (0.05 nM) in PC3 cells, 2 h at 4 °C, triplicates, gamma counter, mean ± SEM; read-out: IC50 (competition binding to GRPR). How it is done: Then, ^125I-Tyr^4-BBN (0.05 nM final concentration) was added to each well, and the plates were incubated for 2 h at 4 °C. The cells were then rinsed twice with ice-cold phosphate-buffered saline (PBS) and harvested. The cells were placed on a Packard II gamma counter (PerkinElmer, Boston, MA, USA) to determine the cell-associated radioactivity. After decay correction, data were plotted using GraphPad Prism 9 Software (San Diego, CA, USA) using the sigmoidal dose–response equation, with counts per minute (cpm) of radioactivity bound versus the log of the concentration of NOTA-E5B9-BBN2 monomeric or dimeric TM for the determination of IC50 values. NOTA-E5B9-BBN2 dimeric TM was also tested in LNCaP cells. Gastrin-releasing peptide (GRP) served as the control.

A short description of data set [4]: Dynamic PET imaging, tumor uptake in LNCaP xenografts. Type of data set: in vivo, mouse. The note with it: male, BALB/c Nude, mouse, iv, total radioactivity. On the procedure:
(§2) For PET experiments and as prostate cancer xenograft models, male PC3 and LNCaP tumor-bearing BALB/c Nude mice were used (body weight: 22−24 g, Charles River Laboratories, Saint-Constant, QC, Canada). To generate the tumor xenografts, about 5−6 × 10^6 PC3 cells in 100 μL of PBS or 20−25 × 10^6 LNCaP cells in 200 μL of PBS/Matrigel (50/50) were subcutaneously injected into the left shoulder of male BALB/c Nude mice. For the androgen-dependent LNCaP model, a 1.5 mg pellet containing dehydroepiandrosterone DHEA (60-day release; Innovative Research of America, Sarasota, FL, U.S.A.) was implanted subcutaneously into the upper right flank shortly before LNCaP cell injection. PC3 tumors and LNCaP tumors reached sizes of ∼300−500 mm^3 after 3−5 weeks and 6−8 weeks, respectively, and were used for the in vivo experiments. PET imaging of E5B9-^68Ga-NOTA-BBN2 monomeric and dimeric TMs was performed on an INVEON® PET/CT scanner (Siemens Preclinical Solutions, Knoxville, TN, USA). Prior to radiotracer injection, mice were anesthetized through inhalation of isoflurane in 40% oxygen/60% nitrogen (gas flow 1 L/min), and body temperature was kept constant at 37 °C. The mice were placed in a prone position in the center of the field of view. A transmission scan for attenuation correction was not acquired. Mice were injected with 4−8 MBq of E5B9-^68Ga-NOTA-BBN2 or E5B9-^68Ga-NOTA-(BBN2)2 in 150 μL 10% EtOH/saline solution through a tail vein catheter. For blocking studies, PC3- and LNCaP-tumor-bearing […] mice were pre-dosed i.v. with 300 μg of Ava-BBN2 (15 min prior to radiotracer injection) in 50 uL saline. Data acquisition was performed over 60 min in 3D list mode. The dynamic list mode data were sorted into sinograms with 54 time frames (10 × 2, 8 × 5, 6 × 10, 6 × 20, 8 × 60, 10 × 120, 6 × 300 s). The frames were reconstructed using maximum a posteriori (MAP) as the reconstruction mode. No correction for partial volume effects was applied. The image files were processed using the ROVER v2.0.51 software (ABX GmbH, Radeberg, Germany). […] ROIs covered all visible tumor mass of the subcutaneous tumors, and the thresholds were defined by 50% of the maximum radioactivity uptake level. Mean standardized uptake values [SUVmean = (activity/mL tissue)/(injected activity/body weight), […]] were calculated for each ROI, and time−activity curves (TACs) were generated. For each experimental group (different radiotracers and mouse tumor models as well as control and blocking experiments), n = 3–6 mice were measured. […] Blocking experiments were conducted in the same mice: first, a control scan was measured and then repeated 1–2 days after in the presence of a blocking concentration of 300 μg of Ava-BBN2. All semi-quantified PET data are presented as means ± SEM. […]

The nature of data set [5]: Dynamic PET imaging, tumor uptake in PC3 xenografts. As to conditions: male, BALB/c Nude, mouse, iv, total radioactivity. In kind it is in vivo, mouse. How it is done: as §2
The test system of data set [6] is LNCaP tumors. The data set is described as follows: Dynamic PET imaging, tumor uptake in LNCaP xenografts. Type of data set: in vivo, mouse. As to conditions: LNCaP tumors, pre-dosing i.v. with 300 µg Ava-BBN2 15 min before radiotracer, n = 3, p < 0.01. On the procedure:
as §2

Data set [7] in a line: In vivo metabolic stability in venous blood plasma. The note with it: BALB/c mice, i.v., 60 min p.i., radio-HPLC, mean ± SEM, n = 3, listed as dimeric TM. Details: species or system mouse. On the procedure: For metabolic stability studies in vivo, normal male BALB/c mice (body weight: 23−26 g, Charles River Laboratories, Saint-Constant, QC, Canada) were anesthetized through inhalation of isoflurane in 40% oxygen/60% nitrogen (gas flow 1 L/min) prior to i.v. radiotracer injection via the tail vein. Mice were injected with 28-50 MBq of E5B9-^68Ga-NOTA-BBN2 TM, E5B9-^68Ga-NOTA-(BBN2)2 TM, or ^68Ga-NOTA-Ava-Glu-(BBN2)2 dimer in 150 μL of 10% EtOH/saline. Venous blood samples were collected at 5, 15, 30, and 60 min post-injection via the mouse tail vein and further processed. Blood cells were separated by centrifugation (13,000 rpm × 5 min). The supernatant was removed, and the contained proteins were precipitated by the addition of 2 volume parts of methanol (2 vol of MeOH/1 vol of the sample). Another centrifugation step (13,000 rpm × 5 min) was performed to obtain plasma. The clear plasma supernatant was injected into a Shimadzu HPLC system. The samples were analyzed using a Phenomenex Luna 10u C18(2) 100A, 250 × 4.6 mm column, at a constant flow rate of 1 mL/min, and the following gradient with water/0.2% TFA as solvent A and acetonitrile as solvent B: 0−3 min 10% B, 10 min 30% B, 17 min 50% B, 23 min 70% B, and 27−30 min 90% B. For each radiotracer (monomers and dimers with and without E5B9) blood samples from n = 3 mice were analyzed. […]

Data set [8] has as its system PC3 tumors. The data set is described as follows: Dynamic PET imaging, tumor uptake in PC3 xenografts. The note with it: PC3 tumors, pre-dosing i.v. with 300 µg Ava-BBN2 15 min before radiotracer, n = 3, p < 0.05. In kind it is in vivo, mouse. On the procedure:
as §2

Results on four molecules are retold here after article PMC11941939, “Tackling Prostate Cancer with Theranostic E5B9-Bombesin Target Modules (TMs): From Imaging to Treatment with UniCAR T-Cells” (International Journal of Molecular Sciences, 2025).

Starred links: 1 amine or outer side, 2 acyl side, 3 side chain; linkers in the order of their positions; H or OH if unused. Positions of bridges follow the written chain, without caps; N, C: chain ends. Non-standard residues stand in square brackets, D forms with d. Residues, ends and D or L forms follow the SMILES beside them. Chains are numbered I, II in the order given. *: point of attachment. NOTA(2S-Bn(4-NHCS)) = O=C(O)CN1CCN(CC(=O)O)C[C@H](Cc2ccc(NC(=S)*)cc2)N(CC(=O)O)CC1; X1 = O=C([C@H](CCCCn1nnc2c1-c1ccccc1CN([*:3])c1ccccc1-2)N[*:1])[*:2]; X2 = O=C(CCOCCOCCOCCOCCNC(=O)CCN1C(=O)CC([*:1])C1=O)NCCC(=O)[*:2]; γ4hIle = CC[C@H](C)[C@@H](CCC(=O)[*:2])N[*:1]; Tle = CC(C)(C)[C@H](N)C(=O)O; Ava = NCCCCC(=O)O; Sar = CNCC(=O)O

T1 sequence (P30550 whole entry): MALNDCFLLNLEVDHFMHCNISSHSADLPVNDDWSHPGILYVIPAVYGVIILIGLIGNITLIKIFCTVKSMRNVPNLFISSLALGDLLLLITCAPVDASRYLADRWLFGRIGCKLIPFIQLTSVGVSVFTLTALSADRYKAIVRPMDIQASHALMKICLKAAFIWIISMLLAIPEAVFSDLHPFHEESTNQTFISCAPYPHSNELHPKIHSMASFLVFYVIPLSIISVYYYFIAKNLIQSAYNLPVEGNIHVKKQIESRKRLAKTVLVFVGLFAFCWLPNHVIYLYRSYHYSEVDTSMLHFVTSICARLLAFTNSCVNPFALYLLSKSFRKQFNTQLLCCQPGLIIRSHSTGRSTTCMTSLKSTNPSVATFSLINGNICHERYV

For `CC[C@H](C)[C@@H](CCC(=O)N[C@H](C(N)=O)C(C)(C)C)NC(=O)[C@H](Cc1c[nH]cn1)NC(=O)CN(C)C(=O)[C@@H](NC(=O)[C@H](C)NC(=O)[C@H](Cc1c[nH]c2ccccc12)NC(=O)[C@H](CCC(N)=O)NC(=O)[C@H](CCCCn1nnc2c1-c1ccccc1CN(C(=O)CCNC(=O)CCOCCOCCOCCOCCNC(=O)CCN1C(=O)CC(SC[C@H](NC(=O)[C@H](Cc3ccc(O)cc3)NC(=O)[C@H](CCC(=O)O)NC(=O)[C@H](CC(=O)O)NC(=O)[C@@H](NC(=O)[C@@H](NC(=O)[C@H](CCC(=O)O)NC(=O)[C@@H]3CCCN3C(=O)[C@H](CC(C)C)NC(=O)[C@@H]3CCCN3C(=O)[C@H](CCCCN)NC(=O)[C@@H](N)CO)C(C)C)[C@@H](C)O)C(=O)O)C1=O)c1ccccc1-2)NC(=O)CCCCNC(=S)Nc1ccc(C[C@H]2CN(CC(=O)O)CCN(CC(=O)O)CCN2CC(=O)O)cc1)C(C)C` (stereo partly drawn) [E5B9-NOTA-BBN2 TM] (I: H-SKPLPEVTDEYC-OH / II: {NOTA(2S-Bn(4-NHCS))-Ava}-[X1]QWAV[Sar]H[γ4hIle][Tle]-NH2; linker I:12-II:1 via X2), the EC50 (commonly the concentration needed to bring the measured effect to its halfway point) in data set [1] worked out at 0.032 µM; in data set [2] it was 0.0298 µM. Besides, the concentration for half-maximal inhibition (IC50) (in general, the concentration at which inhibition is half-maximal) in data set [3] is 0.19 ± 4e-05 µM.
With `CC[C@H](C)[C@@H](CCC(=O)N[C@H](C(N)=O)C(C)(C)C)NC(=O)[C@H](Cc1c[nH]cn1)NC(=O)CN(C)C(=O)[C@@H](NC(=O)[C@H](C)NC(=O)[C@H](Cc1c[nH]c2ccccc12)NC(=O)[C@H](CCC(N)=O)NC(=O)CCCCNC(=S)Nc1ccc(C[C@H]2CN(CC(=O)O)CCN(CC(=O)O)CCN2CC(=O)O)cc1)C(C)C` [^68Ga-NOTA-BBN2, metal not drawn, reference compound] ({NOTA(2S-Bn(4-NHCS))-Ava}-QWAV[Sar]H[γ4hIle][Tle]-NH2; N-terminus and C-terminus assumed), the figures for the SUV at 1 h in data set [4] (in vivo) and in data set [5] (in vivo) were 0.38 ± 0.02 SUV and 0.46 ± 0.05 SUV, respectively.
In the case of `CC[C@H](C)[C@@H](CCC(=O)N[C@H](C(N)=O)C(C)(C)C)NC(=O)[C@H](Cc1c[nH]cn1)NC(=O)CN(C)C(=O)[C@@H](NC(=O)[C@H](C)NC(=O)[C@H](Cc1c[nH]c2ccccc12)NC(=O)[C@H](CCC(N)=O)NC(=O)CCCCNC(=O)CC[C@H](NC(=O)[C@H](CCCCn1nnc2c1-c1ccccc1CN(C(=O)CCNC(=O)CCOCCOCCOCCOCCNC(=O)CCN1C(=O)CC(SC[C@H](NC(=O)[C@H](Cc3ccc(O)cc3)NC(=O)[C@H](CCC(=O)O)NC(=O)[C@H](CC(=O)O)NC(=O)[C@@H](NC(=O)[C@@H](NC(=O)[C@H](CCC(=O)O)NC(=O)[C@@H]3CCCN3C(=O)[C@H](CC(C)C)NC(=O)[C@@H]3CCCN3C(=O)[C@H](CCCCN)NC(=O)[C@@H](N)CO)C(C)C)[C@@H](C)O)C(=O)O)C1=O)c1ccccc1-2)NC(=O)CCCCNC(=S)Nc1ccc(C[C@H]2CN(CC(=O)O)CCN(CC(=O)O)CCN2CC(=O)O)cc1)C(=O)NCCCCC(=O)N[C@@H](CCC(N)=O)C(=O)N[C@@H](Cc1c[nH]c2ccccc12)C(=O)N[C@@H](C)C(=O)N[C@H](C(=O)N(C)CC(=O)N[C@@H](Cc1c[nH]cn1)C(=O)N[C@H](CCC(=O)N[C@H](C(N)=O)C(C)(C)C)[C@@H](C)CC)C(C)C)C(C)C` (stereo partly drawn) [dimeric ^68Ga-(BBN2)2 TM, metal not drawn], the “in vivo blocking of tumor uptake” value in data set [6] stood at 43 ± 3%. The SUV at 1 h in data set [4] (LNCaP xenograft tumor, LNCaP tumor-bearing mice, PET, 60 min p.i., i.v., mean ± SEM, n = 3-4, read-out: SUVmean,60min tumor uptake) was determined as 0.38 ± 0.03 SUV; in data set [5] (PC3 xenograft tumor, PC3 tumor-bearing mice, PET, 60 min p.i., i.v., mean ± SEM, n = 4-6, read-out: SUVmean,60min tumor uptake), 0.51 ± 0.1 SUV. The “intact 68Ga-peptide remaining” value in data set [7] was 93 ± 1%.
On to `CC[C@H](C)[C@@H](CCC(=O)N[C@H](C(N)=O)C(C)(C)C)NC(=O)[C@H](Cc1c[nH]cn1)NC(=O)CN(C)C(=O)[C@@H](NC(=O)[C@H](C)NC(=O)[C@H](Cc1c[nH]c2ccccc12)NC(=O)[C@H](CCC(N)=O)NC(=O)[C@H](CCCCn1nnc2c1-c1ccccc1CN(C(=O)CCNC(=O)CCOCCOCCOCCOCCNC(=O)CCN1C(=O)CC(SC[C@H](NC(=O)[C@H](Cc3ccc(O)cc3)NC(=O)[C@H](CCC(=O)O)NC(=O)[C@H](CC(=O)O)NC(=O)[C@@H](NC(=O)[C@@H](NC(=O)[C@H](CCC(=O)O)NC(=O)[C@@H]3CCCN3C(=O)[C@H](CC(C)C)NC(=O)[C@@H]3CCCN3C(=O)[C@H](CCCCN)NC(=O)[C@@H](N)CO)C(C)C)[C@@H](C)O)C(=O)O)C1=O)c1ccccc1-2)NC(=O)CCCCNC(=S)Nc1ccc(C[C@H]2CN(CC(=O)O)CCN(CC(=O)O)CCN2CC(=O)O)cc1)C(C)C` (stereo partly drawn) [monomeric ^68Ga-BBN2 TM, metal not drawn] (I: H-SKPLPEVTDEYC-OH / II: {NOTA(2S-Bn(4-NHCS))-Ava}-[X1]QWAV[Sar]H[γ4hIle][Tle]-NH2; linker I:12-II:1 via X2), for which the SUV at 1 h in data set [4] (in vivo) was determined as 0.44 ± 0.11 SUV; in data set [5] (in vivo), 0.44 ± 0.01 SUV. Also, in data set [8], the “in vivo blocking of tumor uptake” value is given as 39 ± 9%.
